Laboratory results reported in patent publication US20140363428A1 (Chugai, published 2014).

Columns and labels:
[1] = biological target: T1, soluble human FcRn (heterodimer of FcRn alpha chain and beta2-microglobulin) (human, UniProt P55899 24-297; P61769 21-119); assay: SPR (Biacore), hFcRn, measured in multiplicates; n=12
T1 construct: Signal regions are part of the expressed constructs; also called hFcRn

soluble human FcRn [2] = biological target: T2, soluble human FcRn (human, UniProt P55899 24-297; P61769 21-119); assay: SPR (Biacore), pH 6.0
T2 construct: Heterodimer of alpha chain and beta2-microglobulin; also called hFcRn

soluble human FcRn [3] = biological target: T2, soluble human FcRn; assay: SPR (Biacore), pH 7.0
soluble human FcRn [4] = biological target: T2, soluble human FcRn; assay: SPR (Biacore), pH 7.0; remark: listed apart in the source
soluble human FcRn [5] = biological target: T2, soluble human FcRn; assay: SPR (Biacore), pH 7.0; remark: listed apart in the source

Row | Binder | Kd (soluble human FcRn [2]) [nM] | also measured
1 | Fv-4-F11 (antibody, human IgG1, kappa, VH3-F11 (M252Y/N434Y) and VL3-CK) heavy: not shown light: DIQMTQSPSSLSASVGDSVTITCQASTDISSHLNWYQQKPGKAPELLIYYGSHLLSGVPSRFSGSGSGTDFTFTISSLEAEDAATYYCGQGNRLPYTFGQGTKVEIERTVAAPSVFIFPPSDEQLKSGTASVVCLLNNFYPREAKVQWKVDNALQSGNSQESVTEQDSKDSTYSLSSTLTLSKADYEKHKVYACEVTHQGLSSPVTKSFNRGEC | – | Kd [1]: 310 nM
2 | Fv-4-F1166 (antibody) heavy: QVQLQESGPGLVKPSETLSLTCAVSGHSISHDHAWSWVRQPPGEGLEWIGFISYSGITNYNPSLQGRVTISRDNSKNTLYLQMNSLRAEDTAVYYCARSLARTTAMDYWGEGTLVTVSSASTKGPSVFPLAPSSKSTSGGTAALGCLVKDYFPEPVTVSWNSGALTSGVHTFPAVLQSSGLYSLSSVVTVPSSSLGTQTYICNVNHKPSNTKVDKKVEPKSCDKTHTCPPCPAPELLGGPSVFLFPPKPKDTLYITREPEVTCVVVDVSHEDPEVKFNWYVDGVEVHNAKTKPREEQYNSTYRVVSVLTVLHQDWLNGKEYKCKVSNKALPAPIEKTISKAKGQPREPQVYTLPPSRDELTKNQVSLTCLVKGFYPSDIAVEWESNGQPENNYKTTPPVLDSDGSFFLYSKLTVDKSRWQQGNVFSCSVMHEALHNHYTRKELSLSP light: DIQMTQSPSSLSASVGDSVTITCQASTDISSHLNWYQQKPGKAPELLIYYGSHLLSGVPSRFSGSGSGTDFTFTISSLEAEDAATYYCGQGNRLPYTFGQGTKVEIERTVAAPSVFIFPPSDEQLKSGTASVVCLLNNFYPREAKVQWKVDNALQSGNSQESVTEQDSKDSTYSLSSTLTLSKADYEKHKVYACEVTHQGLSSPVTKSFNRGEC | 210 | –
3 | Fv-4-F1115 (antibody, human IgG1, kappa) heavy: QVQLQESGPGLVKPSETLSLTCAVSGHSISHDHAWSWVRQPPGEGLEWIGFISYSGITNYNPSLQGRVTISRDNSKNTLYLQMNSLRAEDTAVYYCARSLARTTAMDYWGEGTLVTVSSASTKGPSVFPLAPSSKSTSGGTAALGCLVKDYFPEPVTVSWNSGALTSGVHTFPAVLQSSGLYSLSSVVTVPSSSLGTQTYICNVNHKPSNTKVDKKVEPKSCDKTHTCPPCPAPELLGGPSVFLFPPKPKDTLYISRTPEVTCVVVDVSHEDPEVKFNWYVDGVEVHNAKTKPREEQYNSTYRVVSVLTVLHQDWLNGKEYKCKVSNKALPAPIEKTISKAKGQPREPQVYTLPPSRDELTKNQVSLTCLVKGFYPSDIAVEWESNGQPENNYKTTPPVLDSDGSFFLYSKLTVDKSRWQQGNVFNCSVMHEALHYHVTQKSLSLSP light: DIQMTQSPSSLSASVGDSVTITCQASTDISSHLNWYQQKPGKAPELLIYYGSHLLSGVPSRFSGSGSGTDFTFTISSLEAEDAATYYCGQGNRLPYTFGQGTKVEIERTVAAPSVFIFPPSDEQLKSGTASVVCLLNNFYPREAKVQWKVDNALQSGNSQESVTEQDSKDSTYSLSSTLTLSKADYEKHKVYACEVTHQGLSSPVTKSFNRGEC | – | Kd (soluble human FcRn [3]): 130 nM
4 | Fv-4-F890 (antibody, human IgG1, kappa, M252Y/N434Y/Y436V (EU)) heavy: QVQLQESGPGLVKPSETLSLTCAVSGHSISHDHAWSWVRQPPGEGLEWIGFISYSGITNYNPSLQGRVTISRDNSKNTLYLQMNSLRAEDTAVYYCARSLARTTAMDYWGEGTLVTVSSASTKGPSVFPLAPSSKSTSGGTAALGCLVKDYFPEPVTVSWNSGALTSGVHTFPAVLQSSGLYSLSSVVTVPSSSLGTQTYICNVNHKPSNTKVDKKVEPKSCDKTHTCPPCPAPELLGGPSVFLFPPKPKDTLYISRTPEVTCVVVDVSHEDPEVKFNWYVDGVEVHNAKTKPREEQYNSTYRVVSVLTVLHQDWLNGKEYKCKVSNKALPAPIEKTISKAKGQPREPQVYTLPPSRDELTKNQVSLTCLVKGFYPSDIAVEWESNGQPENNYKTTPPVLDSDGSFFLYSKLTVDKSRWQQGNVFSCSVMHEALHYHVTQKSLSLSP light: DIQMTQSPSSLSASVGDSVTITCQASTDISSHLNWYQQKPGKAPELLIYYGSHLLSGVPSRFSGSGSGTDFTFTISSLEAEDAATYYCGQGNRLPYTFGQGTKVEIERTVAAPSVFIFPPSDEQLKSGTASVVCLLNNFYPREAKVQWKVDNALQSGNSQESVTEQDSKDSTYSLSSTLTLSKADYEKHKVYACEVTHQGLSSPVTKSFNRGEC | – | Kd (soluble human FcRn [4]): 107 nM; Kd (soluble human FcRn [3]): 110 nM
5 | Fv-4-F1167 (antibody, human IgG1, kappa) heavy: QVQLQESGPGLVKPSETLSLTCAVSGHSISHDHAWSWVRQPPGEGLEWIGFISYSGITNYNPSLQGRVTISRDNSKNTLYLQMNSLRAEDTAVYYCARSLARTTAMDYWGEGTLVTVSSASTKGPSVFPLAPSSKSTSGGTAALGCLVKDYFPEPVTVSWNSGALTSGVHTFPAVLQSSGLYSLSSVVTVPSSSLGTQTYICNVNHKPSNTKVDKKVEPKSCDKTHTCPPCPAPELLGGPSVFLFPPKPKDTLYITREPEVTCVVVDVSHEDPEVKFNWYVDGVEVHNAKTKPREEQYNSTYRVVSVLTVLHQDWLNGKEYKCKVSNKALPAPIEKTISKAKGQPREPQVYTLPPSRDELTKNQVSLTCLVKGFYPSDIAVEWESNGQPENNYKTTPPVLDSDGSFFLYSKLTVDKSRWQQGNVFNCSVMHEALHNHYTQKSLSLSP light: DIQMTQSPSSLSASVGDSVTITCQASTDISSHLNWYQQKPGKAPELLIYYGSHLLSGVPSRFSGSGSGTDFTFTISSLEAEDAATYYCGQGNRLPYTFGQGTKVEIERTVAAPSVFIFPPSDEQLKSGTASVVCLLNNFYPREAKVQWKVDNALQSGNSQESVTEQDSKDSTYSLSSTLTLSKADYEKHKVYACEVTHQGLSSPVTKSFNRGEC | 250 | –
6 | Fv-4-F1340 (antibody) heavy: QVQLQESGPGLVKPSETLSLTCAVSGHSISHDHAWSWVRQPPGEGLEWIGFISYSGITNYNPSLQGRVTISRDNSKNTLYLQMNSLRAEDTAVYYCARSLARTTAMDYWGEGTLVTVSSASTKGPSVFPLAPSSKSTSGGTAALGCLVKDYFPEPVTVSWNSGALTSGVHTFPAVLQSSGLYSLSSVVTVPSSSLGTQTYICNVNHKPSNTKVDKKVEPKSCDKTHTCPPCPAPELRGGPKVFLFPPKPKDTLYITREPEVTCVVVDVSHEDPEVKFNWYVDGVEVHNAKTKPREEQYNSTYRVVSVLTVLHQDWLNGKEYKCKVSNKALPAPIEKTISKAKGQPREPQVYTLPPSRDELTKNQVSLTCLVKGFYPSDIAVEWESNGQPENNYKTTPPVLDSDGSFFLYSKLTVDKSRWQQGNVFSCSVMHEALHYHVTKKELSLSP light: DIQMTQSPSSLSASVGDSVTITCQASTDISSHLNWYQQKPGKAPELLIYYGSHLLSGVPSRFSGSGSGTDFTFTISSLEAEDAATYYCGQGNRLPYTFGQGTKVEIERTVAAPSVFIFPPSDEQLKSGTASVVCLLNNFYPREAKVQWKVDNALQSGNSQESVTEQDSKDSTYSLSSTLTLSKADYEKHKVYACEVTHQGLSSPVTKSFNRGEC | – | Kd (soluble human FcRn [5]): 56 nM

The next lines start with results.

Row | Kd (soluble human FcRn [2]) [nM] | Binder | also measured
7 | 240 | Fv-4-F1171 (antibody, human IgG1, kappa) heavy: QVQLQESGPGLVKPSETLSLTCAVSGHSISHDHAWSWVRQPPGEGLEWIGFISYSGITNYNPSLQGRVTISRDNSKNTLYLQMNSLRAEDTAVYYCARSLARTTAMDYWGEGTLVTVSSASTKGPSVFPLAPSSKSTSGGTAALGCLVKDYFPEPVTVSWNSGALTSGVHTFPAVLQSSGLYSLSSVVTVPSSSLGTQTYICNVNHKPSNTKVDKKVEPKSCDKTHTCPPCPAPELLGGPSVFLFPPKPKDTLMISRTPEVTCVVVDVSHEDPEVKFNWYVDGVEVHNAKTKPREEQYNSTYRVVSVLTVLHQDWLNGKEYKCKVSNKALPAPIEKTISKAKGQPREPQVYTLPPSRDELTKNQVSLTCLVKGFYPSDIAVEWESNGQPENNYKTTPPVLDSDGSFFLYSKLTVDKSRWQQGNVFNCSVLHEALHSHYTQKSLSLSP light: DIQMTQSPSSLSASVGDSVTITCQASTDISSHLNWYQQKPGKAPELLIYYGSHLLSGVPSRFSGSGSGTDFTFTISSLEAEDAATYYCGQGNRLPYTFGQGTKVEIERTVAAPSVFIFPPSDEQLKSGTASVVCLLNNFYPREAKVQWKVDNALQSGNSQESVTEQDSKDSTYSLSSTLTLSKADYEKHKVYACEVTHQGLSSPVTKSFNRGEC | –
8 | 400 | Fv-4-F1172 (antibody) heavy: QVQLQESGPGLVKPSETLSLTCAVSGHSISHDHAWSWVRQPPGEGLEWIGFISYSGITNYNPSLQGRVTISRDNSKNTLYLQMNSLRAEDTAVYYCARSLARTTAMDYWGEGTLVTVSSASTKGPSVFPLAPSSKSTSGGTAALGCLVKDYFPEPVTVSWNSGALTSGVHTFPAVLQSSGLYSLSSVVTVPSSSLGTQTYICNVNHKPSNTKVDKKVEPKSCDKTHTCPPCPAPELLGGPSVFLFPPKPKDTLMISRTPEVTCVVVDVSHEDPEVKFNWYVDGVEVHNAKTKPREEQYNSTYRVVSVLTVLHQDWLNGKEYKCKVSNKALPAPIEKTISKAKGQPREPQVYTLPPSRDELTKNQVSLTCLVKGFYPSDIAVEWESNGQPENNYKTTPPVLDSDGSFFLYSKLTVDKSRWQQGNVFSCSVMHEALHHHYTRKELSLSP light: DIQMTQSPSSLSASVGDSVTITCQASTDISSHLNWYQQKPGKAPELLIYYGSHLLSGVPSRFSGSGSGTDFTFTISSLEAEDAATYYCGQGNRLPYTFGQGTKVEIERTVAAPSVFIFPPSDEQLKSGTASVVCLLNNFYPREAKVQWKVDNALQSGNSQESVTEQDSKDSTYSLSSTLTLSKADYEKHKVYACEVTHQGLSSPVTKSFNRGEC | –
9 | 430 | Fv-4-N434H (antibody, human IgG1, kappa) heavy: not shown light: DIQMTQSPSSLSASVGDSVTITCQASTDISSHLNWYQQKPGKAPELLIYYGSHLLSGVPSRFSGSGSGTDFTFTISSLEAEDAATYYCGQGNRLPYTFGQGTKVEIERTVAAPSVFIFPPSDEQLKSGTASVVCLLNNFYPREAKVQWKVDNALQSGNSQESVTEQDSKDSTYSLSSTLTLSKADYEKHKVYACEVTHQGLSSPVTKSFNRGEC | –
10 | 530 | Fv-4-F1173 (antibody, human IgG1, kappa) heavy: not shown light: DIQMTQSPSSLSASVGDSVTITCQASTDISSHLNWYQQKPGKAPELLIYYGSHLLSGVPSRFSGSGSGTDFTFTISSLEAEDAATYYCGQGNRLPYTFGQGTKVEIERTVAAPSVFIFPPSDEQLKSGTASVVCLLNNFYPREAKVQWKVDNALQSGNSQESVTEQDSKDSTYSLSSTLTLSKADYEKHKVYACEVTHQGLSSPVTKSFNRGEC | –
